We go through one variant from IntAct's records for PubMed 17289029.

B1: Zinc finger protein GLIS2 (Homo sapiens), Q9BZE0 (parent)
chain: MHSLDEPLDLKLSITKLRAAREKRERTLGVVRPRALHRELGLVDDSPTPGSPGSPPSGFLLNSKFPEKVEGRFSAAPLVDLSLSPPSGLDSPNGSSSLSPERQGNGDLPPVPSASDFQPLRYLDGVPSSFQFFLPLGSGGALHLPASSFLTPPKDKCLSPDLPLPKQLVCRWAKCNQLFELLQDLVDHVNDYHVKPEKDAGYCCHWEGCARHGRGFNARYKMLIHIRTHTNEKPHRCPTCSKSFSRLENLKIHNRSHTGEKPYVCPYEGCNKRYSNSSDRFKHTRTHYVDKPYYCKMPGCHKRYTDPSSLRKHIKAHGHFVSHEQQELLQLRPPPKPPLPAPDGGPYVSGAQIIIPNPAALFGGPGLPGLPLPLAPGPLDLSALACGNGGGSGGGGGMGPGLPGPVLPLNLAKNPLLPSPFGAGGLGLPVVSLLAGAAGGKAEGEKGRGSVPTRALGMEGHKTPLERTESSCSRPSPDGLPLLPGTVLDLSTGVNSAASSPEALAPGWVVIPPGSVLLKPAVVN

The variants in this assay derive from B1. The note with it: with ctnb1_human CTNNB1, P35222.
Sequence of ctnb1_human CTNNB1, P35222 (P35222 whole entry): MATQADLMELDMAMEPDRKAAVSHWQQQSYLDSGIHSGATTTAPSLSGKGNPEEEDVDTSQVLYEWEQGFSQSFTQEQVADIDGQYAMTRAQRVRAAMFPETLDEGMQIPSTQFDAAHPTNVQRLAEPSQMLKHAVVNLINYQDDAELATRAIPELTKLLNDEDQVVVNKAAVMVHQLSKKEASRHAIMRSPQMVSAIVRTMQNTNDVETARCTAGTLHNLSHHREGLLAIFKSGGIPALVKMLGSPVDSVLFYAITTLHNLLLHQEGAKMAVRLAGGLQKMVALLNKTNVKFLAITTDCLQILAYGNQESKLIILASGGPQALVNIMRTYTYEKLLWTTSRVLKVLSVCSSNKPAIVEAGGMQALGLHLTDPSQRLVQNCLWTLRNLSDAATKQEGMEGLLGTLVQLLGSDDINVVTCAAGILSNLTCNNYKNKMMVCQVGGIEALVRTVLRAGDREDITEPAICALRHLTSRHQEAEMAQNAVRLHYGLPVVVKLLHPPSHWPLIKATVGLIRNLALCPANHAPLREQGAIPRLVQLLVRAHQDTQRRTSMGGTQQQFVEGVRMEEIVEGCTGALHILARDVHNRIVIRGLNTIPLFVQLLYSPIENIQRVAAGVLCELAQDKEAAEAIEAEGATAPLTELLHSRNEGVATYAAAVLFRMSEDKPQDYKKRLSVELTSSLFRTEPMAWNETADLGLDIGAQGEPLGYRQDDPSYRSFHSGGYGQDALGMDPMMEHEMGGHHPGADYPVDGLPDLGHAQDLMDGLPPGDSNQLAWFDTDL
Take MHSLDEPLDLKLSITKLRAAREKRERTLGVVRPRALHRELGLVDDSPTPGSPGSPPSGFLLNSKFPEKVEGRFSAAPLVDLSLSPPSGLDSPNGSSSLSPERQGNGDLPPVPSASDFQPLRYLDGVPSSFQFFLPLGSGGALHLPASSFLTPPKDKCLSPDLPLPKQLVCRWAKANQLFELLQDLVDHVNDYHVKPEKDAGYCCHWEGCARHGRGFNARYKMLIHIRTHTNEKPHRCPTCSKSFSRLENLKIHNRSHTGEKPYVCPYEGCNKRYSNSSDRFKHTRTHYVDKPYYCKMPGCHKRYTDPSSLRKHIKAHGHFVSHEQQELLQLRPPPKPPLPAPDGGPYVSGAQIIIPNPAALFGGPGLPGLPLPLAPGPLDLSALACGNGGGSGGGGGMGPGLPGPVLPLNLAKNPLLPSPFGAGGLGLPVVSLLAGAAGGKAEGEKGRGSVPTRALGMEGHKTPLERTESSCSRPSPDGLPLLPGTVLDLSTGVNSAASSPEALAPGWVVIPPGSVLLKPAVVN [C175A]: the “effect of a mutation on the interaction” value is “disrupting interaction”.
